Reference: FireProtDB (doi:10.1016/0022-2836(92)90557-z)

Settings: Bacillus amyloliquefaciens; pH 6.3; 25 °C; Urea; Fluorescence; MES 1.00 M; NaCl 613 mM; reversible: yes; whole UniProt chain shown

B1: Ribonuclease wild type, P00648 (protein)
chain: MMKMEGIALKKRLSWISVCLLVLVSAAGMLFSTAAKTETSSHKAHTEAQVINTFDGVADYLQTYHKLPDNYITKSEAQALGWVASKGNLADVAPGKSIGGDIFSNREGKLPGKSGRTWREADINYTSGFRNSDRILYSSDWLIYKTTDHYQTFTKIR
denaturant midpoint (higher = more stable): 4.58 M
